# In patent publication US20260176358A1 (JIANGSU HENGRUI PHARMACEUTICALS, published 2026):
# Residue numbers refer to the chain shown, from its start. Like-named read-outs stand apart in the source and are kept apart here.
# B1: P14#-CHI (antibody, human IgG1, kappa, V domains shown)
# VH: DVKLVESGGGLVKPGGSLKVSCAASGFAFNNYDMSWVRQTPEKRLDWVATITGGGSYTWYPDSVKGRFTISRDNARNTLFLQMSSLRSEDTALYYCARLNGYDQAGAMDYWGQGTSVTVSS
# VL: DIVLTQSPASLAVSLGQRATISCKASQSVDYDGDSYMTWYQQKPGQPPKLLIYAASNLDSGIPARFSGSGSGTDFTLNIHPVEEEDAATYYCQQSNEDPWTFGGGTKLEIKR
# notes: chimeric: murine variable regions fused to human constant regions; also called P14#-CH1
# B2: P14H1L2 (antibody, human IgG1, kappa, V domains shown)
# VH: EVQLVESGGGLVKPGGSLRLSCAASGFAFNNYDMSWVRQAPGKGLEWVATITGGGSYTWYPDSVKGRFTISRDNAKNSLYLQMNSLRAEDTAVYYCARLTGYDQAGAMDYWGQGTTVTVSS
# VL: DIVLTQSPDSLAVSLGERATINCKASQSVDYDGDSYMTWYQQKPGQPPKLLIYAASNLDSGIPDRFSGSGSGTDFTLTISSLQAEDVAVYYCQQSNEDPWTFGGGTKVEIKR
# B3: P14H1L1 (antibody, human IgG1, kappa, V domains shown)
# VH: B2 VH
# VL: B2 VL with L4M, I62V
# B4: P14H2L3 (antibody, human IgG1, kappa, V domains shown)
# VH: B2 VH with K13Q
# VL: B2 VL with N57H
# B5: CP-2 (bispecific antibody)
# heavy: EVQLVESGGGLVQPGGSLRLSCAASGFAFNNYDMSWVRQAPGKGLEWVATITGGGSYTWYPDSVKGRFTISRDNAKNSLYLQMNSLRAEDTAVYYCARLTGYDQAGAMDYWGQGTTVTVSSASTKGPSVFPLAPSSKSTSGGTAALGCLVKDYFPEPVTVSWNSGALTSGVHTFPAVLQSSGLYSLSSVVTVPSSSLGTQTYICNVNHKPSNTKVDKKVEPKSCEVQLVQSGAEVKKPGASVKVSCKASGYTFTDYYMNWVRQAPGQCLEWMGDINPNTGVTTYNQKFKGRVTITVDKSASTAYMELSSLRSEDTAVYYCASIIIVPDYFDYWGQGTTVTVSSGGGGSGGGGSGGGGSDIQMTQSPSSVSASVGDRVTITCKASQNVGSNVAWYQQKPGKSPKALIYSASYRYSGVPSRFSGSGSGTDFTLTISSLQPEDFATYYCQQYNSYPYTFGCGTKVEIKGGGDKTHTCPPCPAPELLGGPSVFLFPPKPKDTLYITREPEVTCVVVDVSHEDPEVKFNWYVDGVEVHNAKTKPREEQYNSTYRVVSVLTVLHQDWLNGKEYKCKVSNKALPAPIEKTISKAKGQPREPQVYTLPPSRDELTKNQVSLTCLVKGFYPSDIAVEWESNGQPENNYKTTPPVLDSDGSFFLYSKLTVDKSRWQQGNVFSCSVMHEALHNHYTQKSLSLSPGK
# light: DIVLTQSPDSLAVSLGERATINCKASQSVDYDGDSYMTWYQQKPGQPPKLLIYAASHLDSGIPDRFSGSGSGTDFTLTISSLQAEDVAVYYCQQSNEDPWTFGGGTKVEIKRTVAAPSVFIFPPSDEQLKSGTASVVCLLNNFYPREAKVQWKVDNALQSGNSQESVTEQDSKDSTYSLSSTLTLSKADYEKHKVYACEVTHQGLSSPVTKSFNRGEC
# notes: Format 2+2, anti-PACAP Fab (P14H2L3) and anti-CGRP scFv (C28H8L2), IgG1 (YTE) Fc; also called Biotin-CP-2
# B6: CP-3 (bispecific antibody, human IgG1, kappa)
# heavy 1: EVQLVESGGGLVQPGGSLRLSCAASGFAFNNYDMSWVRQAPGKGLEWVATITGGGSYTWYPDSVKGRFTISRDNAKNSLYLQMNSLRAEDTAVYYCARLTGYDQAGAMDYWGQGTTVTVSSASTKGPSVFPLAPSSKSTSGGTAALGCLVKDYFPEPVTVSWNSGALTSGVHTFPAVLQSSGLYSLSSVVTVPSSSLGTQTYICNVNHKPSNTKVDKKVEPKSCDKTHTCPPCPAPELLGGPSVFLFPPKPKDTLYITREPEVTCVVVDVSHEDPEVKFNWYVDGVEVHNAKTKPREEQYNSTYRVVSVLTVLHQDWLNGKEYKCKVSNKALPAPIEKTISKAKGQPREPQVYTLPPCRDELTKNQVSLWCLVKGFYPSDIAVEWESNGQPENNYKTTPPVLDSDGSFFLYSKLTVDKSRWQQGNVFSCSVMHEALHNHYTQKSLSLSPGK
# light 1: B5 light
# heavy 2: EVQLVQSGAEVKKPGASVKVSCKASGYTFTDYYMNWVRQAPGQRLEWMGDINPNTGVTTYNQKFKGRVTITVDKSASTAYMELSSLRSEDTAVYYCASIIIVPDYFDYWGQGTTVTVSSGGGGSGIPPKIECLPIDISIDEGKVLTVASAFTGEPTPEVTWSTGGRKIHSQEQGRFHIENTDDSTTLTIKDVQKQDGGLYTLTLRNEFGSDSATVNIHIRSIDKTHTCPPCPAPELLGGPSVFLFPPKPKDTLYITREPEVTCVVVDVSHEDPEVKFNWYVDGVEVHNAKTKPREEQYNSTYRVVSVLTVLHQDWLNGKEYKCKVSNKALPAPIEKTISKAKGQPREPQVCTLPPSRDELTKNQVSLSCAVKGFYPSDIAVEWESNGQPENNYKTTPPVLDSDGSFFLVSKLTVDKSRWQQGNVFSCSVMHEALHNHYTQKSLSLSPGK
# light 2: DIQMTQSPSSVSASVGDRVTITCKASQNVGSNVAWYQQKPGKSPKALIYSASYRYSGVPSRFSGSGSGTDFTLTISSLQPEDFATYYCQQYNSYPYTFGGGTKVEIKGGGGSSGAPRFLTRPKASVVSVGKDATLSCQIVGNPFPQVSWEKDKQPVTAGVRFRLAQDGDLYRLKILDLQLSDSGQYVCRARNAHGEAFACLGLQVDAEA
# notes: Format 1+1, anti-PACAP Fab (P14H2L3) and anti-CGRP Titin/Obscurin Fab (C28H6L1), knob-into-hole IgG1 (YTE) Fc; also called Biotin-CP-3
# Tests used:
# PACAP38 [1] = target: T1, PACAP38 (UniProt P18509 132-169, biotinylated in the ELISAs); test: cell-based or functional assay
# T1 peptide (looked up): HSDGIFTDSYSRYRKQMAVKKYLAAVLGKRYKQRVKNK
# VIP = target: T2, VIP (UniProt P01282 125-152, biotinylated in the ELISA); test: ELISA, biotinylated VIP on streptavidin plate
# T2 construct: also called vasoactive intestinal peptide
# T2 peptide (looked up): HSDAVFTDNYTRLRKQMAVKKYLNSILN
# Protocol: (§1) In this test example, the abilities of the chimeric antibodies and humanized antibodies of C1 #, C9 #, C21 #, and C28 #to bind to human CGRP and rat CGRP were assessed using ELISAs. Plates were coated with […] human CGRP and rat CGRP, respectively, and blocked, and the antibodies, serially diluted, were then added. The plates were incubated for 1 h and washed, and a horseradish peroxidase-labeled anti-human Fc secondary antibody was then added. After incubation, color development was performed. […] The plates were incubated for 1 h and washed, and the antibodies, serially diluted, were then added. The plates were incubated for 1 h and washed, and a horseradish peroxidase-labeled streptavidin secondary antibody was then added. After incubation, color development was performed.
# PACAP38 [2] = target: T1, PACAP38; test: ELISA, biotinylated peptide on streptavidin plate
# Protocol: as §1
# PACAP27 [3] = target: T3, PACAP27 (UniProt P18509 132-158, biotinylated in the ELISAs); test: ELISA, biotinylated peptide on streptavidin plate
# T3 peptide (looked up): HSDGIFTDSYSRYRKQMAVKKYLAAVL
# Protocol: as §1
# PACAP38 [4] = target: T1, PACAP38; test: competition ELISA, biotinylated PACAP38 to coated PAC1-Fc
# Protocol: (§2) The plates were incubated for 1 h and washed, and a horseradish peroxidase-labeled streptavidin secondary antibody was then added. After incubation, color development was performed.
# PACAP38 [5] = target: T1, PACAP38; test: competition ELISA, biotinylated PACAP38 to coated VPAC1-Fc
# Protocol: as §2
# PACAP38 [6] = target: T1, PACAP38; test: competition ELISA, biotinylated PACAP38 to coated VPAC2-Fc
# Protocol: as §2
# PACAP38 [7] = target: T1, PACAP38; test: cell-based or functional assay
# PACAP38 [8] = target: T1, PACAP38; test: ELISA, antibody on coated anti-human Fc, biotinylated peptide
# Protocol: (§3) Plates were coated with 1 μg/mL anti-human Fc and blocked, and the antibodies, serially diluted, were added. […] The plates were incubated for 1 h and washed, and a horseradish peroxidase-labeled streptavidin secondary antibody was then added. After incubation, color development was performed.
# PACAP27 [9] = target: T3, PACAP27; test: as above
# Protocol: as §3
# CGRP = test: cell-based or functional assay
# rat CGRP = target: T4, rat CGRP (rat, UniProt P01256 83-119); test: SPR, Biacore 8K, antibody captured on Protein A chip, 1:1 model
# T4 peptide (looked up): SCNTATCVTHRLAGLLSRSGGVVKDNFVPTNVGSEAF
# Protocol: A Protein A biosensor chip was used to affinity-capture IgG, and a molecule sample was then allowed to flow through the surface of the chip. Reaction signals were detected in real time using a Biacore 8K system to obtain association and dissociation curves. After the dissociation in each experimental cycle was complete, the biosensor chip was washed and regenerated 3 times with 50 mM NaOH. Data fitting was performed using a 1:1 model.
# human CGRP = target: T5, human CGRP (human, UniProt P06881 83-119); test: SPR, Biacore 8K, 25 C, biotinylated antibody on SA chip, 1:1 model
# T5 peptide (looked up): T4 peptide (looked up) with S1A, N3D, D25N, E35K
# Protocol: First, the test antibodies ([…] for the mAbs and 4 μg/mL for the diabodies), biotinylated (indicated by Biotin-), were each coupled onto an SA biosensor chip. Then samples of the antigen human CGRP were sequentially injected in ascending order for 180 s, followed by dissociation. After the test was finished, fitting was performed using a 1:1 binding model.
Binder,"IC50, inhibition of cAMP production in SH-SY5Y cells (PACAP38 [1])",binding result (VIP),EC50 (PACAP38 [2]),EC50 (PACAP27 [3]),IC50 (PACAP38 [4]),IC50 (PACAP38 [5]),IC50 (PACAP38 [6]),"IC50, inhibition of cAMP production in SH-SY5Y cells (PACAP38 [7])",EC50 (PACAP38 [8]),EC50 (PACAP27 [9]),"IC50, inhibition of cAMP production in SK-N-MC cells (CGRP)",Kd (rat CGRP),koff (rat CGRP),kon (rat CGRP),Kd (human CGRP),koff (human CGRP),kon (human CGRP)
B1,1460 pM,no binding,90 pM,140 pM,480 pM,270 pM,230 pM,,,,,,,,,,
B2,2370 pM,no binding,90 pM,190 pM,450 pM,190 pM,180 pM,,,,,,,,,,
B3,,no binding,110 pM,190 pM,510 pM,200 pM,210 pM,,,,,,,,,,
B4,4020 pM,no binding,90 pM,200 pM,670 pM,580 pM,400 pM,2400 pM,130 pM,160 pM,,,,,,,
B5,,,,,,,,1920 pM,100 pM,160 pM,2030 pM,358 pM,0.000743 s⁻¹,2.07e+06 M⁻¹ s⁻¹,11.7 pM,2.35e-05 s⁻¹,2e+06 M⁻¹ s⁻¹
B6,,,,,,,,11000 pM,220 pM,330 pM,5790 pM,89.7 pM,0.000301 s⁻¹,3.35e+06 M⁻¹ s⁻¹,7.64 pM,3.31e-05 s⁻¹,4.34e+06 M⁻¹ s⁻¹
